The Ki is a dissociation constant, usually derived from enzyme kinetics or from competition with a known ligand.

Our source for the Ki values is publication PMC4604100, “Melanocortin agonists stimulate lipolysis in human adipose tissue explants but not in adipocytes” (BMC Research Notes, 2015).

Holding throughout (details): modification not given
The target in assay [1] is Melanocortin receptor 1 (Homo sapiens), Q01726. The experiment in a line: 125I-NDP-α-MSH competition binding (membrane filtration).
In assay [2] the target is Melanocortin receptor 5 (Homo sapiens), P33032. Nature of the assay: competition.
For assay [3], the target named is Melanocortin receptor 3 (Homo sapiens), P41968. The experiment in a line: competition.
The target of assay [4] is Melanocortin receptor 4 (Homo sapiens), P32245. The experiment in a line: competition.
Chain of Melanocortin receptor 4 (Homo sapiens), P32245 (P32245 whole entry): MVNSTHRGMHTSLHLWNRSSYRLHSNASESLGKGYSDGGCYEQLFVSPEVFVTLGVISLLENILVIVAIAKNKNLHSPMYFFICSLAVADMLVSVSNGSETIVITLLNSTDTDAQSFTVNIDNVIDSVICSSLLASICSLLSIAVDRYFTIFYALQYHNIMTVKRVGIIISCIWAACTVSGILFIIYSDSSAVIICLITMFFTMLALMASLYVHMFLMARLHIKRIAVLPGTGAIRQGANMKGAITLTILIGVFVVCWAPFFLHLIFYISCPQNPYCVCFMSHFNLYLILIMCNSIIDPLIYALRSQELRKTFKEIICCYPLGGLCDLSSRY

Chain of Melanocortin receptor 5 (Homo sapiens), P33032 (P33032 whole entry): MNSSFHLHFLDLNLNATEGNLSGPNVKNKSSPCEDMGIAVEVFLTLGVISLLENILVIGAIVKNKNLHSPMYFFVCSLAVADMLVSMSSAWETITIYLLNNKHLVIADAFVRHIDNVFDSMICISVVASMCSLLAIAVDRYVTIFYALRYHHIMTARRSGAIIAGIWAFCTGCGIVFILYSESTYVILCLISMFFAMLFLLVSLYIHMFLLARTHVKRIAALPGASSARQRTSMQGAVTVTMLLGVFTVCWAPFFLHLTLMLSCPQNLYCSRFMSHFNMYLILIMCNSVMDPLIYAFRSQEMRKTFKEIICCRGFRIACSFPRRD
Chain of Melanocortin receptor 3 (Homo sapiens), P41968 (P41968 whole entry): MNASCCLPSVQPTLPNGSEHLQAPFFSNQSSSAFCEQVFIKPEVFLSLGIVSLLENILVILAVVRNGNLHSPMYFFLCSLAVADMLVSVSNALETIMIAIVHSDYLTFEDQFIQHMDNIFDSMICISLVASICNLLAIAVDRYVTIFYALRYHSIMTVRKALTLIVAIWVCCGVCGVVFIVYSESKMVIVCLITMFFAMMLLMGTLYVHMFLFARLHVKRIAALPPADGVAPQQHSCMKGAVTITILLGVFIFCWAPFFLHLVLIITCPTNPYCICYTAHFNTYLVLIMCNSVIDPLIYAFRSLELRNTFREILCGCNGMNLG
Chain of Melanocortin receptor 1 (Homo sapiens), Q01726 (Q01726 whole entry): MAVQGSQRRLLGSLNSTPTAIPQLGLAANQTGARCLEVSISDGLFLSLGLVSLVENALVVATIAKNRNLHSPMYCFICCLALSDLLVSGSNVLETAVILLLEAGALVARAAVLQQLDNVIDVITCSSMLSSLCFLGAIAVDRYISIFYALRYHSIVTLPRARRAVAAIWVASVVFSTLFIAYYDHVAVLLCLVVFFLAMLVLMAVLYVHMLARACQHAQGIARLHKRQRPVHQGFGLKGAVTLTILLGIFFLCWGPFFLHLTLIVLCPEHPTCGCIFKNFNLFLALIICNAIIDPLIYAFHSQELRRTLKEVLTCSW

For the molecule SYSMEHFRWGKPVGKKRRPVKVYPNGAEDESAEAFPLEF [ACTH, P01189], the Ki in assay [1] was 0.09 nM; in assay [2], 46 nM; in assay [3], 11.1 nM; in assay [4], 1.2 nM.
